Experimental findings from publication PMC11294563 are described below.

Experiment [1] deals with PAR-2 RING domain (residues 40-120) L109R (C. elegans). Nature of the experiment: SEC-MALS; input sample 0.75 mg/ml, wild type compared with L109R; Superdex 75 Increase 10/300 GL, 20 mM Tris-HCl, 150 mM NaCl, 0.5 mM TCEP pH 7.5.
The target of experiment [2] is PAR-2 RING domain (PAR-2 residues 40-120, core RING domain and flanking dimerization helices) (C. elegans). Nature of the experiment: AUC; sedimentation equilibrium, interference data, 20,000 and 24,000 rpm, three PAR-2 RING concentrations, 20 mM Tris-HCl, 150 mM NaCl, 0.5 mM TCEP; global fit to a monomer-dimer model (SEDPHAT); dimer to monomers.
Experiment [3] has the same target. The experiment is described as follows: SEC-MALS; input samples from 10 to 0.5 mg/ml, 100 µl on Superdex 75 Increase 10/300 GL, 20 mM Tris-HCl, 150 mM NaCl, 0.5 mM TCEP pH 7.5, 1.0 ml/min; weight-averaged molecular weight fitted to a monomer-dimer model.
The target is the same in experiment [4]. Nature of the experiment: SEC-MALS; input sample 0.75 mg/ml, wild type compared with L109R; Superdex 75 Increase 10/300 GL, 20 mM Tris-HCl, 150 mM NaCl, 0.5 mM TCEP pH 7.5.
Experiment [5] deals with mNG::PAR-2(L109R) (endogenously tagged PAR-2 with L109R) (C. elegans).

In experiment [1], “PAR-2 RING domain (residues 40-120) L109R (domain or fragment)” displayed a dimer fraction at 0.75 mg/ml of 5% and a fold reduction in dimer affinity against wild type of 10 fold.
In experiment [2], “PAR-2 RING domain (PAR-2 residues 40-120, core RING domain and flanking dimerization helices) (domain or fragment)” showed a Kd of 0.358 µM. In experiment [3], this substance yielded a stoichiometry N of 2. This substance returned a dimer fraction at 0.75 mg/ml in experiment [4] of 35%.
Turning to “mNG::PAR-2(L109R) (endogenously tagged PAR-2 with L109R) (natural protein)”, the fold reduction in dimerization affinity against PAR-2(WT), from the simultaneous fit of the model to membrane and cytoplasmic concentrations in embryos (common KD^mem) in experiment [5] stood at 6 fold.
